Data taken from article PMC3228521 (Molecular bioSystems, 2011).
Numbering of substitutions follows the chain as printed. Names and notes keep the numbering of the source. Like-named read-outs stand apart in the source and are kept apart here.

T1: UBZ-CN (a.a. 515~615) of S. cerevisiae Polη, GST fusion (S. cerevisiae, UniProt Q04049 515-615)
T1 sequence (looked up): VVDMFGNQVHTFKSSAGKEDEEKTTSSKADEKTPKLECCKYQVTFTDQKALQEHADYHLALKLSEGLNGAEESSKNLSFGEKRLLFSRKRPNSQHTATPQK

T2: C-term scPolη (a.a. 515~632) HH568,572AA, GST fusion (S. cerevisiae, UniProt Q04049 515-632, HH568,572AA | HH568,572AA)
T2 sequence (looked up): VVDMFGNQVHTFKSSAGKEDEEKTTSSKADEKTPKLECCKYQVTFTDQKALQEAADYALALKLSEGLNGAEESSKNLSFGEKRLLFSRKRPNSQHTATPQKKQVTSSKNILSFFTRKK

T3: C-term scPolη (a.a. 515~632) CC552,553AA, GST fusion (S. cerevisiae, UniProt Q04049 515-632, CC552,553AA | CC552,553AA)
T3 sequence (looked up): T2 sequence (looked up) with C38A, C39A, A54H, A58H

B1: UBZ-C (a.a. 545~608) of S. cerevisiae Polη, GST fusion (domain or fragment, UniProt Q04049 545-608, looked up)
chain: EKTPKLECCKYQVTFTDQKALQEHADYHLALKLSEGLNGAEESSKNLSFGEKRLLFSRKRPNSQ
B2: UBZ-N (a.a. 515~580) of S. cerevisiae Polη, GST fusion (domain or fragment, UniProt Q04049 515-580, looked up)
chain: VVDMFGNQVHTFKSSAGKEDEEKTTSSKADEKTPKLECCKYQVTFTDQKALQEHADYHLALKLSEG
B3: ubiquitin (S. cerevisiae) (natural protein)
chain: not shown

Experiments:
Assay in all cases: SPR
[1] = molecular target: B3
[2] = molecular target: B3; remark: listed apart in the source
[3] = molecular target: T1, UBZ-CN (a.a. 515~615) of S. cerevisiae …
[4] = molecular target: T2, C-term scPolη (a.a. 515~632) …
[5] = molecular target: T3, C-term scPolη (a.a. 515~632) …

Kd [2]	Binder	also measured
	B1	Kd [1]: 15.8 ± 3.7 µM
	B2	Kd [1]: 18.2 ± 2.2 µM
14.6 ± 2.5 µM	EKTPKLECCKYQVTFTDQKALQEHADYHLALKLSEG (domain or fragment, UniProt Q04049 545-580, looked up) [minimal S. cerevisiae Polη UBZ domain (a.a. 545–580) with N-terminal GST tag, wild type]	
22.2 ± 4.8 µM	EKTPKLECCKYQVTFTDQKALQEAADYALALKLSEG (domain or fragment, S. cerevisiae, UniProt Q04049 545-580, looked up) [scPolη UBZ domain (a.a. 545–580) HH568,572AA, GST fusion]	
38.6 ± 8.6 µM	EKTPKLECCKYQVTFTDQKALQEHADYHLFLKLSEG (domain or fragment, S. cerevisiae, UniProt Q04049 545-580, looked up) [scPolη UBZ domain (a.a. 545–580) A574F, GST fusion]	
23.6 ± 2.4 µM	EKTPKLECCKYQVTFTDQKALQEHAAYHLALKLSEG (domain or fragment, S. cerevisiae, UniProt Q04049 545-580, looked up) [scPolη UBZ domain (a.a. 545–580) D570A, GST fusion]	
48.4 ± 7.2 µM	EKTPKLECCKYQVTFTDQKALPEHADYHLALKLSEG (domain or fragment, S. cerevisiae, UniProt Q04049 545-580, looked up) [scPolη UBZ domain (a.a. 545–580) Q566P, GST fusion]	
55.3 ± 5.5 µM	EKTPKLECCKYQVTFTDQKALQEHADYHLPLKLSEG (domain or fragment, S. cerevisiae, UniProt Q04049 545-580, looked up) [scPolη UBZ domain (a.a. 545–580) A574P, GST fusion]	
43.1 ± 10.2 µM	EKTPKLECCKYQVTFTDQKALQEHPDYHLALKLSEG (domain or fragment, S. cerevisiae, UniProt Q04049 545-580, looked up) [scPolη UBZ domain (a.a. 545–580) A569P, GST fusion]	
22.3 ± 4.1 µM	EKTPKLEAAKYQVTFTDQKALQEHADYHLALKLSEG (domain or fragment, S. cerevisiae, UniProt Q04049 545-580, looked up) [scPolη UBZ domain (a.a. 545–580) CC552,553AA, GST fusion]	
	B3	Kd [3]: 11.1 ± 1.8 µM; Kd [4]: 590 ± 140 nM; Kd [5]: 300 ± 100 nM
